In patent US20170343556A1 (VENTANA MEDICAL SYSTEMS, published 2017):

Biological target: T1, human PD-L1 (Programmed death ligand-1) (human, UniProt Q9NZQ7 19-290)
T1 construct: whole, on cells; Endogenous PD-L1 in fixed tissue sections, detected by immunohistochemistry; No recombinant construct was used; also called B7-H1; PDCD1L1
Assay: immunohistochemistry on FFPE tissue sections, OptiView DAB detection
Protocol: VENTANA PD-L1 (SP263) is a rabbit monoclonal primary antibody which binds to PD-L1 in paraffin-embedded tissue sections. The specific antibody can be localized using a haptenated secondary antibody followed by a multimer anti-hapten-HRP conjugate (OptiView DAB IHC Detection Kit, Cat. No. 760-700). The specific antibody-enzyme complex is then visualized with a precipitating enzyme reaction product. Each step is incubated for a precise time and temperature. At the end of each incubation step, the VENTANA BENCHMARK automated slide stainer washes the sections to stop the reaction and to remove unbound material that would hinder the desired reaction in subsequent steps. It also applies LCS (Cat. No. 650-210/Cat. No. 650-010), which minimizes evaporation of the aqueous reagents from the specimen slide. In addition to staining with VENTANA PD-L1 (SP263), a second slide is stained with a rabbit monoclonal negative control Ig (Cat. No. 790-4795) to assess background staining. [0113] IB. Specimen Preparation

T1 sequence (Q9NZQ7 19-290): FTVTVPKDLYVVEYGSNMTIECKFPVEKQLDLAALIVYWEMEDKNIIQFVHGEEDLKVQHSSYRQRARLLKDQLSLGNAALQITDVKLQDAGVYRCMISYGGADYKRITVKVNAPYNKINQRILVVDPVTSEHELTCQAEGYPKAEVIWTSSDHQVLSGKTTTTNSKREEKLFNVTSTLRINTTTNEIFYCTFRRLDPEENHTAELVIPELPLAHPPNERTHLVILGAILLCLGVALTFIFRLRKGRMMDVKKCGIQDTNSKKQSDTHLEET

B1: VENTANA PD-L1 (SP263) Rabbit Monoclonal Antibody (antibody, V domains shown)
VH: QSLEESGGRLVTPGTPLTLTCTASGFSLSNHAISWVRQAPGKGLEWIGTINSDTHTYYATWPKGRFTISKTSSTTVDLKMTSPTTEDTATYFCARRIFSSSNIWGPGTLVTVSS
VL: AIVMTQTSSPVSAVVGGTVAINCQASQSIYNNNWLSWFQQKPGQPPKLLIYLASTLASGVPSRFKGSGSGTQFTLTISDVVCDDAATYYCIGGESSNNDGIAFGGGTEVVVK
notes: Rabbit monoclonal primary antibody with a kappa light chain; also called SP263 antibody; anti-PD-L1
- binding result: binds
